The values below come from the supplement of paper PMC12042874.

± gives the uncertainty stated by the source.

A short description of this data set: amyloid nucleation score (Sup35N fusion, yeast selection) (log enrichment); library NNK2; higher = more nucleation; inactive = no reads after selection. A digest of the protocol:
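The nucleation score is the DiMSum log enrichment of output over input reads, centred on the mode score of non-aggregating sequences. Only sequences with 100 or more input reads were scored, using Illumina sequencing of input and output plasmid inserts. Psi-negative yeast expressing Sup35N fused to peptides of 20 random codons were induced 24 hours with 100 μM copper sulfate and grown 7 days at 30°C on medium lacking adenine and uracil.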
With FGIHHCLVCRLNLDFISGVD, the amyloid nucleation score was -0.877 ± 0.62.
WLGIAAM yielded an amyloid nucleation score of 1.15 ± 0.43.
MGMLFMFVITKKSLVQDSLY registered an amyloid nucleation score of 2.64 ± 0.19.
In the case of RILFRGHSVLKNWF, the amyloid nucleation score is -1.86 ± 0.49.
Turning to DGELVVWFMVMSWWNIKDSK, the amyloid nucleation score was -0.446 ± 1.
SVLQAYFRTWSQWIRYTCAG: the amyloid nucleation score was -0.141 ± 0.31.
The result for WVDGICCPPRSG reads 0.292 ± 0.29.
For YYHYYFGFCDNM, the amyloid nucleation score was found to be 0.664 ± 0.33.
As to SFGKVYFN, the amyloid nucleation score is 0.617 ± 0.53.
Take MIDLTLIFLFLVYSD: the amyloid nucleation score was -0.827 ± 0.62.
FEGQA came in with an amyloid nucleation score of -1.8 ± 0.54.
Consider SYFMTLIVPGRLLWIDLEGV, for which the amyloid nucleation score was -0.823 ± 0.63.
As for VEFYCSTERCLYDFTNG, the figure is -2.3 ± 0.75; as for YRCYTSGFLFFHGSCLNCKS, 0.227 ± 1.1.
In the case of DRPSCEFEPMFRRWDYSEGA, the amyloid nucleation score is 0.11 ± 0.23.
The result for LRGLSAPACKYQWQDEMYD reads -0.628 ± 0.45.
Turning to ERVQMFQIRVQSAYVVFGVS, the amyloid nucleation score was 4.75 ± 0.077.
With GDPLS, the amyloid nucleation score amounted to 0.162 ± 0.28.
For IRGSSIEKNRMWHVGLSLTW, the amyloid nucleation score was -0.809 ± 1.1.
HLTVFVDLSVRLRQMYRRYS had an amyloid nucleation score of 5.56 ± 0.069.
The substance FSLHKCNVRLGISNGT had an amyloid nucleation score of -0.276 ± 0.48.
In turn, TSQQRAYITP registered an amyloid nucleation score of -0.703 ± 1.
AAIRH: the amyloid nucleation score was -0.328 ± 0.49.
Regarding ILSTVTDSSCNIACSCNNN, the amyloid nucleation score was determined as 8.363 ± 0.047.
On to KLNLMCWDGLYLDMKIDSNL, for which the amyloid nucleation score is 3.94 ± 0.07.
Regarding TPGLCSNL, the amyloid nucleation score was -1.44 ± 1.
FRHCTFRLFHAHK: the amyloid nucleation score was -0.378 ± 1.
With GYCETNFGGCVPDWMEMLQR, the amyloid nucleation score turned out to be 6.67 ± 0.061.
As to KILALATRLKIFSSLVYIRS, the amyloid nucleation score was 0.338 ± 0.51.
Turning to SGPVVQDKVYHRVNYF, the amyloid nucleation score was -0.369 ± 1.1.
As to TASKILSGIASYDSRIIQPE, the amyloid nucleation score was -0.447 ± 0.23.
Substance WFMSKAYVTSCALFSRVIHT displayed an amyloid nucleation score of 0.914 ± 0.43.
The result for LVNNGRVLSCYICV reads 9.171 ± 0.056; that for GLNISPRMYCF, 0.002 ± 0.28; that for IYLTLNGILAICASRAWAAK, 0.094 ± 0.77.
Substance PPHCTGHLV showed an amyloid nucleation score of 0.183 ± 1.
As for NYTNVRERGYMRVEYDMSIT, the figure is 0.202 ± 0.56; as for DWQRRFAQIMIRGFNVILVT, 0.097 ± 1.1; as for FFYALGYRISDAMEIRRVGS, 2.35 ± 0.059.
For LGLCLHLISSFRHRYAVLSR, the amyloid nucleation score is -0.19 ± 0.3.
PRCRVAR gave an amyloid nucleation score of 0.305 ± 1.
On to IRYLYAMVLMDVNDGRYYCK, for which the amyloid nucleation score was -1.54 ± 1.
The result for CFSKMFNV reads -1.03 ± 0.53.
With TYPRDYVVRSEI, the amyloid nucleation score worked out at 0.74 ± 0.43.
VIKMSVNNVELVGMDHYSCV displayed an amyloid nucleation score of 0.606 ± 0.23.
IVTINGNN registered an amyloid nucleation score of -0.51 ± 0.44.
GFYIPRRAFS displayed an amyloid nucleation score of -1.13 ± 0.25.
The result for GYLQGLCRG reads -0.047 ± 1.1; that for QWWRYS, 1.17 ± 0.41; that for AILGLYVYMGSWHKGVSGVI, “inactive”.
Turning to GNRLWFGTIVRHLIYEVYVR, the amyloid nucleation score was 0.665 ± 0.36.
With TVASTYVLVTCHRAFDQS, the amyloid nucleation score stood at 3.46 ± 0.079.
In the case of EDLYFTTGMLAKKCGPQGMG, the amyloid nucleation score turned out to be 5.04 ± 0.069.
The result for VLSNNFWRMSNFWVRMRHTL reads -0.25 ± 0.63; that for YIFGSCGVYLFPPPAKF, 6.88 ± 0.078; that for RPLPSFPNNRSERSNTSF, 0.851 ± 0.57.
In turn, SPSSQSKVISCLRVS came in with an amyloid nucleation score of 0.611 ± 0.81.
The result for SYVIGGGSMGQARDRCLSNA reads 1.11 ± 0.23; that for FSLQCPFSERKIYRRLCSPS, “inactive”; that for YPPSVLFVSALHQVGTMSGG, 0.003 ± 0.3.
With GHGFFLTTMSSGNNTDRNSG, the amyloid nucleation score is -1.22 ± 1.1.
With WVTGPSRPD, the amyloid nucleation score came to 0.387 ± 0.8.
The result for SGYMMNFAA reads 1.24 ± 0.32; that for CMGFLYTNTYCGGILIELFI, “inactive”; that for CMWGVDQPCLTTLTEAVLKP, 1.96 ± 0.12.
The result for NDRSSDWCCIPSKLRWSRSG reads 4.1 ± 0.057; that for YSFCKCVIVGIWFRLGWCQA, “inactive”.
In the case of DHRVLQWLTAPY, the amyloid nucleation score worked out at 0.353 ± 0.36.
For the substance TVMYSGVG, the amyloid nucleation score was found to be 0.501 ± 0.46.
For the substance GYYGARFLVFKFMVRRWMMT, the amyloid nucleation score entry was “inactive”.
Substance KPFELEIRGKGQRHVEVV displayed an amyloid nucleation score of 1.61 ± 0.26.
CKWMLEENMGQEADSV: the amyloid nucleation score is -0.289 ± 0.21.
Turning to PYYYRLDFWHHNKKYNFGYY, the amyloid nucleation score is -1.16 ± 1.1.
Take LDVVWSRVVRCRCVSWGNSL: the amyloid nucleation score is 0.054 ± 0.65.
In turn, SLPRWTVCVCVQADGYWMWV registered an amyloid nucleation score of 7.12 ± 0.084.
In turn, TVFWGTMVGPQRGVVGLESF yielded an amyloid nucleation score of 0.593 ± 0.74.
Consider YTMWGWLAAMVREMETLGSK, for which the amyloid nucleation score is -0.284 ± 0.61.
KFAKSSNKDHHDFYAVELGT had an amyloid nucleation score of -0.289 ± 0.63.
On to VFSLCGIYMRGHYSYWCYNK, for which the amyloid nucleation score entry is “inactive”.
Substance LMSKKGNGIGLEQPLLSSDT yielded an amyloid nucleation score of -0.778 ± 1.1.
With CWMIQLVVLEWCAHGPRVAN, the amyloid nucleation score is -0.304 ± 0.41.
Turning to GFSWDNESFLCELKMGCLTG, the amyloid nucleation score was -0.646 ± 0.31.
SGHISYG gave an amyloid nucleation score of 0.192 ± 0.56.
As to DDRELL, the amyloid nucleation score was -0.32 ± 0.63.
For the substance MNGVLFMCFIH, the amyloid nucleation score stood at 3.86 ± 0.085.
Take RRGKFEAANSWGD: the amyloid nucleation score was 0.792 ± 0.53.
As for ELTSLQVMLSNDEMMGGRVN, the figure is 0.064 ± 0.3.
As for HYISRHQLWILFFVKCVNSR, the figure is 5.01 ± 0.1; as for SFEPFETLEREVPPPLTWPT, 1.99 ± 0.2; as for MYLPMVDVIEVSYSVNLERG, -0.311 ± 0.32.
RRDSVKCVSARGRISLLVSR showed an amyloid nucleation score of 2.8 ± 0.056.
As for YFFRMSWPLGPMTSFRTLYL, the figure is -0.608 ± 0.4; as for HAYFFLRDRVRCSIFVIVTT, -0.453 ± 0.78.
For the substance CGARRGCDSWTSSTAGKSVG, the amyloid nucleation score worked out at 1.16 ± 0.61.
The substance SDCRWNCVSMEWIDPTHEDK came in with an amyloid nucleation score of -0.518 ± 0.2.
The result for MLELSATMSVHVQRLNASGH reads 9.009 ± 0.068; that for SACLFLDME, 0.664 ± 0.41.
In the case of KRSMKESWVYNLCNRVYCKG, the amyloid nucleation score amounted to 0.467 ± 0.8.
Take LTFYCME: the amyloid nucleation score is -0.465 ± 0.45.
As for TEIKSCKDNTHVHMHSLIRA, the amyloid nucleation score turned out to be 0.384 ± 0.43.
Consider VHVVSRAQTCEFF, for which the amyloid nucleation score is 0.956 ± 0.67.
As for LRCSESCNLMNKYGWRRNQA, the figure is 3.65 ± 0.081; as for WHMLHRVDKAISFSLSCCGR, 7.81 ± 0.084; as for FHAYTGCVWVTCQYGWRRDT, 1.9 ± 0.15.
